Experimental data from patent US20150203577A1 (Chugai, published 2015).

T1: mouse FcγRII extracellular domain, C-terminal His tag (mouse, UniProt P08101 30-210)
T1 construct: Whole entry named; also called mFcγRII; mFcgRII
T1 sequence: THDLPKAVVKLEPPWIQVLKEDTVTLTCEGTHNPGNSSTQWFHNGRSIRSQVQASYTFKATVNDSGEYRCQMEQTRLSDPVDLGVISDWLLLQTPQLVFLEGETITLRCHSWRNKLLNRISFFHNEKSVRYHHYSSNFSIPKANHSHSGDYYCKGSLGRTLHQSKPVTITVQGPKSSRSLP

T2: mouse FcγRIII extracellular domain, C-terminal His tag (mouse, UniProt P08508 31-215)
T2 construct: Whole entry named; also called mFcγRIII; mFcgRIII
T2 chain: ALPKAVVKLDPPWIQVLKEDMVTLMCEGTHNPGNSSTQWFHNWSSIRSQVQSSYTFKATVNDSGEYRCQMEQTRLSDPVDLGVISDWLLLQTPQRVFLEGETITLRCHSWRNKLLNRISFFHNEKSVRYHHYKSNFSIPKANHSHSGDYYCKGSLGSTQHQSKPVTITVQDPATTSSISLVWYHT

B1: H237-MB726/MRAL-k0 (antibody, mouse IgG1, kappa)
heavy: QVQLQESGPGLVKPSETLSLTCAVSGHSISHDHAWSWVRQPPGEGLEWIGFISYSGITNYNPSLQGRVTISRDNSKNTLYLQMNSLRAEDTAVYYCARSLARTTAMDYWGEGTLVTVSSAKTTPPSVYPLAPGSAAQTNSMVTLGCLVKGYFPEPVTVTWNSGSLSSGVHTFPAVLQSDLYTLSSSVTVPSSTWPSETVTCNVAHPASSTKVDKKIVPRDCGCKPCICEVYEEEDVFIFPPKPKDVLTITLTPKVTCVVVDISKDDPEVQFSWFVDDVEVHTAQTQPREEQFNSTFRSVSELPIMHQDWLNGKEFKCRVNSAAFPAPIEKTISKTKGRPKAPQVYTIPPPKEQMAKDKVSLTCMITDFFPEDITVEWQWNGQPAENYKNTQPIMDTDGSYFVYSKLNVQKSNWEAGNTFTCSVLHEGLHNHHTEKSLSHSPGK
light: not shown
notes: copies: 2 + 2
B2: H237-MB729/MRAL-k0 (antibody, mouse IgG1, kappa)
heavy: QVQLQESGPGLVKPSETLSLTCAVSGHSISHDHAWSWVRQPPGEGLEWIGFISYSGITNYNPSLQGRVTISRDNSKNTLYLQMNSLRAEDTAVYYCARSLARTTAMDYWGEGTLVTVSSAKTTPPSVYPLAPGSAAQTNSMVTLGCLVKGYFPEPVTVTWNSGSLSSGVHTFPAVLQSDLYTLSSSVTVPSSTWPSETVTCNVAHPASSTKVDKKIVPRDCGCKPCICEPNEEEDVFIFPPKPKDVLTITLTPKVTCVVVDISKDDPEVQFSWFVDDVEVHTAQTQPREEQFNSTFRSVSELPIMHQDWLNGKEFKCRVNSAAFPAPIEKTISKTKGRPKAPQVYTIPPPKEQMAKDKVSLTCMITDFFPEDITVEWQWNGQPAENYKNTQPIMDTDGSYFVYSKLNVQKSNWEAGNTFTCSVLHEGLHNHHTEKSLSHSPGK
light: not shown
notes: copies: 2 + 2
B3: H237-MB730/MRAL-k0 (antibody, mouse IgG1, kappa)
heavy: QVQLQESGPGLVKPSETLSLTCAVSGHSISHDHAWSWVRQPPGEGLEWIGFISYSGITNYNPSLQGRVTISRDNSKNTLYLQMNSLRAEDTAVYYCARSLARTTAMDYWGEGTLVTVSSAKTTPPSVYPLAPGSAAQTNSMVTLGCLVKGYFPEPVTVTWNSGSLSSGVHTFPAVLQSDLYTLSSSVTVPSSTWPSETVTCNVAHPASSTKVDKKIVPRDCGCKPCICQPNEEEDVFIFPPKPKDVLTITLTPKVTCVVVDISKDDPEVQFSWFVDDVEVHTAQTQPREEQFNSTFRSVSELPIMHQDWLNGKEFKCRVNSAAFPAPIEKTISKTKGRPKAPQVYTIPPPKEQMAKDKVSLTCMITDFFPEDITVEWQWNGQPAENYKNTQPIMDTDGSYFVYSKLNVQKSNWEAGNTFTCSVLHEGLHNHHTEKSLSHSPGK
light: not shown
notes: copies: 2 + 2
B4: H237-MB727/MRAL-k0 (antibody, mouse IgG1, kappa)
heavy: QVQLQESGPGLVKPSETLSLTCAVSGHSISHDHAWSWVRQPPGEGLEWIGFISYSGITNYNPSLQGRVTISRDNSKNTLYLQMNSLRAEDTAVYYCARSLARTTAMDYWGEGTLVTVSSAKTTPPSVYPLAPGSAAQTNSMVTLGCLVKGYFPEPVTVTWNSGSLSSGVHTFPAVLQSDLYTLSSSVTVPSSTWPSETVTCNVAHPASSTKVDKKIVPRDCGCKPCICEPAEEEDVFIFPPKPKDVLTITLTPKVTCVVVDISKDDPEVQFSWFVDDVEVHTAQTQPREEQFNSTFRSVSELPIMHQDWLNGKEFKCRVNSAAFPAPIEKTISKTKGRPKAPQVYTIPPPKEQMAKDKVSLTCMITDFFPEDITVEWQWNGQPAENYKNTQPIMDTDGSYFVYSKLNVQKSNWEAGNTFTCSVLHEGLHNHHTEKSLSHSPGK
light: not shown
notes: copies: 2 + 2

Legend:
[1] = molecular target: T1, mouse FcγRII extracellular domain, …; experiment: SPR (Biacore T200); KD of H237-mIgG1/MRAL-k0 / KD of variant
Excerpt: (§1) The antibody H chain variable region used was the variable region H237 (SEQ ID NO: 1) of the H chain VH3-IgG1 of the anti-IL-6 receptor antibody Fv4-IgG1 described in WO2009/125825. The antibody L chain commonly used was the L chain MRAL-k0 (SEQ ID NO: 2) of the anti-IL-6 receptor antibody tocilizumab. The aforementioned 11 variants were used as templates to introduce the alteration. These variants were expressed and purified by the method of Reference Example 1 and evaluated for their binding to mFcγRII and mFcγRIII by the method of Reference Example 2 using Biacore T200.
(§2) Each altered antibody was analyzed for its interaction with each Fcγ receptor prepared above using Biacore T100 (GE Healthcare Japan Corp.), Biacore T200 (GE Healthcare Japan Corp.), Biacore A100, or Biacore 4000. The running buffer used was HBS-EP+ (GE Healthcare Japan Corp.). The assay temperature was set to 25° C. The sensor chips used were chips prepared by immobilizing Protein L (ACTIGEN or BioVision) onto Series S Sensor Chip CM5 (GE Healthcare Japan Corp.) or Series S Sensor Chip CM4 (GE Healthcare Japan Corp.) by the amine coupling method.
(§3) In order to calculate the KD value of each altered antibody for FcγR, kinetic analysis was conducted according to the following method: first, the antibody of interest was captured onto any of these chips and allowed to interact with mFcγR diluted with a running buffer. For the obtained sensorgram, the assay results were globally fit into the 1:1 Langmuir binding model using Biacore Evaluation Software to calculate an association rate constant ka (L/mol/s) and a dissociation rate constant kd (1/s). From these values, the dissociation constant KD (mol/L) was calculated.

[2] = molecular target: T2, mouse FcγRIII extracellular domain, …; experiment: as above
Excerpt: as §1, §2, §3

| Binder | relative mFcγRII-binding activity (mIgG1 = 1) [1] | relative mFcγRIII-binding activity (mIgG1 = 1) [2] |
| --- | --- | --- |
| B1 | 35.7 fold | 2.08 fold |
| B2 | 10.4 fold | 0.53 fold |
| B3 | 7.24 fold | 0.43 fold |
| B4 | 11.7 fold | 0.66 fold |
